The term Km denotes the concentration of substrate that gives half-maximal velocity. A word on the kcat: it is the number of substrate molecules converted per active site and unit of time at saturation. The term kcat/Km denotes the turnover number divided by the Michaelis constant.

One series deals with T1, Escherichia coli MDH (Escherichia coli, UniProt P61889).
T1 construct: C-terminal His6 tag, pET24a, expressed in E. coli BL21(DE3)
T1 sequence (P61889 1-312): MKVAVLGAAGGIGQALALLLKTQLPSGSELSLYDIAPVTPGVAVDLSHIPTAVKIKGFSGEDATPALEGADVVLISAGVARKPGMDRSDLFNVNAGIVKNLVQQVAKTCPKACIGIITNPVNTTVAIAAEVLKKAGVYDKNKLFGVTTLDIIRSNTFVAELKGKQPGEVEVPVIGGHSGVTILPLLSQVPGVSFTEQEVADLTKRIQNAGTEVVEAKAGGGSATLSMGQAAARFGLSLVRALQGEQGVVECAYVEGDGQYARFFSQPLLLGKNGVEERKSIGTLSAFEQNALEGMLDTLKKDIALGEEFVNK
Details: Purified MDH activity, NADH oxidation at 340 nm with varied oxaloacetate, 150 uM NADH, pH 7.4, Michaelis-Menten fit. Particulars: substrate; read-out: KM (oxaloacetate). As for the experimental part:
(§1) Determination of MDH activity was based on spectroscopic assays (30). […] Specifically, a range of oxaloacetate (Sigma) concentrations (7.5–250 µM), 150 µM NADH (Sigma), 5 nM MDH in 0.1 M sodium phosphate buffer, pH 7.4 were used. […] The catalytic parameters, kcat and KM, were calculated by fitting the data using non-linear regression to Michaelis-Menten equation, v0 = (kcat·[E]·[S])/(KM + [S]), where v0 is initial velocity, [E] is MDH concentration, [S] is […]. Original and mutated mdh genes used in the study are summarized in Supplementary Data 1. B. subtilis mdh gene was amplified by PCR from the chromosomal DNA of B. subtilis PY79. Nucleotide sequences of orthologous mdhs were collected from the KEGG database (https://www.genome.jp/), synthesized by GENEWIZ^© and cloned into i) pHT254 B. subtilis expression vector (MoBiTec Molecular Biotechnology), and ii) pET24a E. coli expression vector (Merck-Novagen) using Gibson assembly. […] All MDH proteins were tagged with Hisx6t at the C-terminal end. Mdh genes cloned into pHT254 plasmid were transformed into B. subtilis PY79. Mdh genes cloned into pET24a plasmid were transformed into E. coli Bl21(DE3) strain.

In series [1] the target is T2, isocitrate dehydrogenase (ICD) from Bacillus subtilis (B. subtilis) (UniProt P39126).
T2 sequence: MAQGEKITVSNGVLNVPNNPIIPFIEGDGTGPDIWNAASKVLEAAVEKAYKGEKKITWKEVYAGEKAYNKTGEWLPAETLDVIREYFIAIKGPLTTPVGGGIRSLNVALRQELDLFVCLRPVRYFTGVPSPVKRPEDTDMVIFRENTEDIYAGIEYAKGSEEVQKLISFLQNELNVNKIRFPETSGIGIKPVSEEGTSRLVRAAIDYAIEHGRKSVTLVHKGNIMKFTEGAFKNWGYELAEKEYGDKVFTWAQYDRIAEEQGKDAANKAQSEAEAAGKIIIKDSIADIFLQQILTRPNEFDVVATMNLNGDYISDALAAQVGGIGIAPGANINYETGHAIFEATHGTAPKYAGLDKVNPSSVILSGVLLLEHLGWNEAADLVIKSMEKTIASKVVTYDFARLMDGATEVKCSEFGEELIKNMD

Series [2] concerns the target T2, isocitrate dehydrogenase (ICD) from Bacillus subtilis (B. subtilis). The source holds these as a separate data set.
Substrate in series [3]: O=C(O)CC(=O)C(=O)O
The series is described as follows: purified protein. It is filed as biochemical, Bacillus subtilis. To be noted: 150 uM NADH, oxaloacetate 7.5-250 uM, 5 nM MDH, 0.1 M sodium phosphate pH 7.4.

Substrate in series [4]: O=C(O)CC(=O)C(=O)O
The series is described as follows: purified protein, by the assay type. Further details: Purified MDH activity, NADH oxidation at 340 nm with varied oxaloacetate, 150 uM NADH, pH 7.4, Michaelis-Menten fit. Particulars: pH 7.4. On the procedure: as §1

Substrate in series [5]: O=C(O)CC(=O)C(=O)O
The series is described as follows: purified protein. Format: biochemical, Oceanobacillus iheyensis. Particulars: 150 uM NADH, oxaloacetate 7.5-250 uM, 5 nM MDH, 0.1 M sodium phosphate pH 7.4.

As for `O=C(O)CC(=O)C(=O)O` [oxaloacetate], at Escherichia coli MDH, the Km was 39 µM.

B1: malate dehydrogenase (MDH) from Bacillus subtilis (enzyme)
chain: MGNTRKKVSVIGAGFTGATTAFLIAQKELADVVLVDIPQLENPTKGKALDMLEASPVQGFDAKITGTSNYEDTAGSDIVVITAGIARKPGMSRDDLVSTNEKIMRSVTQEIVKYSPDSIIVVLTNPVDAMTYAVYKESGFPKERVIGQSGVLDTARFRTFVAEELNLSVKDVTGFVLGGHGDDMVPLVRYSYAGGIPLETLIPKERIDAIVERTRKGGGEIVNLLGNGSAYYAPAASLTEMVEAILKDQRRVLPTIAYLEGEYGYEGIYLGVPTIVGGNGLEQIIELELTDYERAQLNKSVESVKNVMKVLS
In series [1], B1 yielded a partitioning of 2-oxoglutarate towards the droplet phase against the continuous phase, droplets with 1:500 molar excess of MDH, after 40 min of incubation of 2 fold. In series [2], the rate of 2-oxoglutarate formation by ICD within BSA/PEG LLPS droplets, MDH/ICD molar ratios 1:1, 10:1, 50:1, 100:1, 250:1 and 500:1 (~10% enhancement at 10:1; plateau at and above 250:1) was found to be 180%.

B2: B. subtilis MDH (BsMDH) (Bacillus subtilis subsp. subtilis str. 168) (protein)
chain: GNTRKKVSVIGAGFTGATTAFLIAQKELADVVLVDIPQLENPTKGKALDMLEASPVQGFDAKITGTSNYEDTAGSDIVVITAGIARKPGMSRDDLVSTNEKIMRSVTQEIVKYSPDSIIVVLTNPVDAMTYAVYKESGFPKERVIGQSGVLDTARFRTFVAEELNLSVKDVTGFVLGGHGDDMVPLVRYSYAGGIPLETLIPKERIDAIVERTRKGGGEIVNLLGNGSAYYAPAASLTEMVEAILKDQRRVLPTIAYLEGEYGYEGIYLGVPTIVGGNGLEQIIELELTDYERAQLNKSVESVKNVMKVLS
notes: full-length, C-terminal His6 tag, pET24a, expressed in E. coli BL21(DE3), Ni-NTA and SEC; 33,643 Da printed
As for B2, in the series “purified protein [3]”, the Michaelis constant (Km) is 12 µM and the kcat amounted to 120 s⁻¹.

B3: Geobacillus kaustophilus MDH (Geobacillus kaustophilus HTA426) (protein)
chain: MAMKRKKISVIGAGFTGATTAFLLAQKELGDVVLVDIPQLENPTKGKALDMLEASPVLGFDANIIGTSDYADTADSDIVVITAGIARKPGMSRDDLVTTNQKIMKQVTKEVVKYSPNCYIIVLTNPVDAMTYTVFQESGFPKNRVIGQSGVLDTARFRTFVAEELNISVKDVTGFVLGGHGDDMVPLVRYSYAGGIPLEKLIPKDRLDAIVERTRKGGGEIVNLLGNGSAYYAPAASLVEMVEAILKDQRRILPAIAYLEGEYGYEGIYLGVPTILGGNGIEKVIELELTEEEKAALAKSVESVKNVMRMLE
notes: C-terminal His6 tag, pET24a, expressed in E. coli BL21(DE3)
On to B3, for which, in series [4], the Km was found to be 54 µM, the kcat is 59 s⁻¹ and the kcat/Km was determined as 1.1e+06 M⁻¹ s⁻¹.

B4: O. iheyensis MDH (OceMDH) (Oceanobacillus iheyensis HTE831) (protein)
chain: MGLKRKKISVIGSGFTGATTALMVAQKELGDVVLVDIPDMEDPTKGKALDMAEAAPVQGFDAKITGTSNYADTEGSDLVIITAGIARKPGMSRDDLVNTNANIMKSVTKEIVHYSPNTTIVVLTNPVDAMTYTVFKESGLPKERVIGQSGILDTARFRTFVAEELNLSVKDVTGFVLGGHGDDMVPLIRYSYAGGIPLEKLIPQERLDAIVQRTRTGGGEIVNLLGNGSAYYAPAASLTVMAEAILKDQRRVLPTIAYLEGEYGYQDIYLGVPTILGGEGIEEIIELDLTKEEKAQLDKSADSVKNVLNVLQ
notes: 34,592 Da printed
As to B4, in “purified protein [5]”, the Michaelis constant (Km) was found to be 23 µM and the catalytic constant (kcat) was determined as 249 s⁻¹.

The values above are taken from PMC11189929, “Non-consecutive enzyme interactions within TCA cycle supramolecular assembly regulate carbon-nitrogen metabolism” (Nature Communications, 2024).
